Test system: glycerol kinase (glpK)
Experiment: Biochemical measurements of mutant glycerol kinase (partially purified protein): reaction rate and inhibition by FBP
Parameters: species or system Escherichia coli
Settings: partially purified protein from cells expressing the enzyme
From the text: All clones had mutations in the gene for glycerol kinase (glpK), which catalyzes the first step in glycerol catabolism. This protein is subject to inhibition by fructose-1,6-bisphosphate (FBP) and phosphorylated enzyme IIA^Glc. […] Since all glycerol-adapted populations have mutations in glpK, rapid growth on glycerol can be partially attributed to altered kinetic and regulatory properties of glycerol kinase. Evidently the rate of glycerol phosphorylation catalyzed by GlpK is rate-limiting to the growth of WT E. coli MG 1655. The glycerol catabolic pathway generates the glycolytic intermediate dihydroxyacetone phosphate, which can be converted to methylglyoxal, a toxic metabolite when present at high concentrations. It is noteworthy that no mutations were detected in any genes relating to methylglyoxal metabolism.

B1: WT: wild-type E. coli MG1655 glycerol kinase (GlpK) (protein, UniProt P0A6F3 2-502, looked up)
Glycerol kinase: TEKKYIVALDQGTTSSRAVVMDHDANIISVSQREFEQIYPKPGWVEHDPMEIWATQSSTLVEVLAKADISSDQIAAIGITNQRETTIVWEKETGKPIYNAIVWQCRRTAEICEHLKRDGLEDYIRSNTGLVIDPYFSGTKVKWILDHVEGSRERARRGELLFGTVDTWLIWKMTQGRVHVTDYTNASRTMLFNIHTLDWDDKMLEVLDIPREMLPEVRRSSEVYGQTNIGGKGGTRIPISGIAGDQQAALFGQLCVKEGMAKNTYGTGCFMLMNTGEKAVKSENGLLTTIACGPTGEVNYALEGAVFMAGASIQWLRDEMKLINDAYDSEYFATKVQNTNGVYVVPAFTGLGAPYWDPYARGAIFGLTRGVNANHIIRATLESIAYQTRDVLEAMQADSGIRLHALRVDGGAVANNFLMQFQSDILGTRVERPEVREVTALGAAYLAGLAVGFWQNLDELQEKAVIEREFRPGIETTERNYRYAGWKKAVKRAMAWEEHDE
In the case of B1, the Vmax is reported as 15.8 μmol glycerol/min/mg.
